Results taken from the supplement of paper PMC9233669.
This sample holds only a part of the variants without activity.

Assays:
biotinyl-Leu-oxazolone = experiment: self-aminoacylation, catalytic enhancement (BLO) (fold over background); higher = more active; k-Seq, kA / k0A0; sequences stand for … in GGGAAUGGAUCCACAUCUACGAAUUC…UUCACUGCAGACUUGACGAAGCUG
In short: (§1)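 Mutagenized RNA pools (0.43 μM; 21-nt variable region) were treated with 2–1250 μM of each biotinyl-aminoacyl-oxazolone. Conditions were 50 μL HEPES/NaCl/KCl/MgCl2/CaCl2 buffer, 5% acetonitrile, pH 6.9–7.0, room temperature, 90 minutes. Catalytic enhancement, the median kA relative to the uncatalyzed rate, was derived from streptavidin capture, qPCR and Illumina sequencing.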

biotinyl-Val-oxazolone = experiment: self-aminoacylation, catalytic enhancement (BVO) (fold over background); higher = more active; k-Seq, kA / k0A0; sequences stand for … in GGGAAUGGAUCCACAUCUACGAAUUC…UUCACUGCAGACUUGACGAAGCUG
In short: as §1

biotinyl-Ile-oxazolone = experiment: self-aminoacylation, catalytic enhancement (BIO) (fold over background); higher = more active; k-Seq, kA / k0A0; sequences stand for … in GGGAAUGGAUCCACAUCUACGAAUUC…UUCACUGCAGACUUGACGAAGCUG
In short: as §1

biotinyl-Phe-oxazolone = experiment: self-aminoacylation, catalytic enhancement (BFO) (fold over background); higher = more active; k-Seq, kA / k0A0; sequences stand for … in GGGAAUGGAUCCACAUCUACGAAUUC…UUCACUGCAGACUUGACGAAGCUG
In short: as §1

biotinyl-Trp-oxazolone = experiment: self-aminoacylation, catalytic enhancement (BWO) (fold over background); higher = more active; k-Seq, kA / k0A0; sequences stand for … in GGGAAUGGAUCCACAUCUACGAAUUC…UUCACUGCAGACUUGACGAAGCUG
In short: as §1

biotinyl-Met-oxazolone = experiment: self-aminoacylation, catalytic enhancement (BMO) (fold over background); higher = more active; k-Seq, kA / k0A0; sequences stand for … in GGGAAUGGAUCCACAUCUACGAAUUC…UUCACUGCAGACUUGACGAAGCUG
In short: as §1

## AUUCACCUAGCUCAUCGGCUG [Fam2.2 aminoacylation ribozyme variant]
biotinyl-Leu-oxazolone
  self-aminoacylation: 2.05
biotinyl-Val-oxazolone
  self-aminoacylation: 1.96
biotinyl-Ile-oxazolone
  self-aminoacylation: 1.67
biotinyl-Phe-oxazolone
  self-aminoacylation: 3.23
biotinyl-Trp-oxazolone
  self-aminoacylation: 1.25
biotinyl-Met-oxazolone
  self-aminoacylation: 1.92

## AUUCACCUAGCUCAUCUGGUG [Fam2.2 aminoacylation ribozyme variant]
biotinyl-Leu-oxazolone
  self-aminoacylation: 1.52
biotinyl-Val-oxazolone
  self-aminoacylation: 1.05
biotinyl-Ile-oxazolone
  self-aminoacylation: 1.17
biotinyl-Phe-oxazolone
  self-aminoacylation: 5.43
biotinyl-Trp-oxazolone
  self-aminoacylation: 0.967
biotinyl-Met-oxazolone
  self-aminoacylation: 1.3

## AUUCACCUAGGACACCGGGUG [Fam2.2 aminoacylation ribozyme variant]
biotinyl-Leu-oxazolone
  self-aminoacylation: 3.94
biotinyl-Val-oxazolone
  self-aminoacylation: 3.63
biotinyl-Ile-oxazolone
  self-aminoacylation: 3.57
biotinyl-Phe-oxazolone
  self-aminoacylation: 15.6
biotinyl-Trp-oxazolone
  self-aminoacylation: 3.19
biotinyl-Met-oxazolone
  self-aminoacylation: 3.51

## AUUCACCUAGGACAUCGGCUG [Fam2.2 aminoacylation ribozyme variant]
biotinyl-Leu-oxazolone
  self-aminoacylation: 2.32
biotinyl-Val-oxazolone
  self-aminoacylation: 1.79
biotinyl-Ile-oxazolone
  self-aminoacylation: 1.7
biotinyl-Phe-oxazolone
  self-aminoacylation: 10.9
biotinyl-Trp-oxazolone
  self-aminoacylation: 2.64
biotinyl-Met-oxazolone
  self-aminoacylation: 2.02

## AUUCACCUAGGACAUCGGGUG [Fam2.2 aminoacylation ribozyme variant]
biotinyl-Leu-oxazolone
  self-aminoacylation: 3.89
biotinyl-Val-oxazolone
  self-aminoacylation: 2.6
biotinyl-Ile-oxazolone
  self-aminoacylation: 2.55
biotinyl-Phe-oxazolone
  self-aminoacylation: 18.8
biotinyl-Trp-oxazolone
  self-aminoacylation: 3.1
biotinyl-Met-oxazolone
  self-aminoacylation: 3.19

## AUUCACCUAGGACAUCGGGUU [Fam2.2 aminoacylation ribozyme variant]
biotinyl-Leu-oxazolone
  self-aminoacylation: 1.38
biotinyl-Val-oxazolone
  self-aminoacylation: 1.77
biotinyl-Ile-oxazolone
  self-aminoacylation: 1.47
biotinyl-Phe-oxazolone
  self-aminoacylation: 3.67
biotinyl-Trp-oxazolone
  self-aminoacylation: 1.25
biotinyl-Met-oxazolone
  self-aminoacylation: 1.39

## AUUCACCUAGGAGAUCGGGUG [Fam2.2 aminoacylation ribozyme variant]
biotinyl-Leu-oxazolone
  self-aminoacylation: 7.83
biotinyl-Val-oxazolone
  self-aminoacylation: 3.54
biotinyl-Ile-oxazolone
  self-aminoacylation: 3.82
biotinyl-Phe-oxazolone
  self-aminoacylation: 34.3
biotinyl-Trp-oxazolone
  self-aminoacylation: 5.46
biotinyl-Met-oxazolone
  self-aminoacylation: 4.82

## AUUCACCUAGGCCAUCGGGGG [Fam2.2 aminoacylation ribozyme variant]
biotinyl-Leu-oxazolone
  self-aminoacylation: 4.55
biotinyl-Val-oxazolone
  self-aminoacylation: 2.82
biotinyl-Ile-oxazolone
  self-aminoacylation: 2.5
biotinyl-Phe-oxazolone
  self-aminoacylation: 10.8
biotinyl-Trp-oxazolone
  self-aminoacylation: 2.28
biotinyl-Met-oxazolone
  self-aminoacylation: 2.64

## AUUCACCUAGGCCAUCUGGUG [Fam2.2 aminoacylation ribozyme variant]
biotinyl-Leu-oxazolone
  self-aminoacylation: 3.29
biotinyl-Val-oxazolone
  self-aminoacylation: 2.05
biotinyl-Ile-oxazolone
  self-aminoacylation: 1.54
biotinyl-Phe-oxazolone
  self-aminoacylation: 13.2
biotinyl-Trp-oxazolone
  self-aminoacylation: 2.35
biotinyl-Met-oxazolone
  self-aminoacylation: 2.74

## AUUCACCUAGGCCAUGGGGUG [Fam2.2 aminoacylation ribozyme variant]
biotinyl-Leu-oxazolone
  self-aminoacylation: 10.2
biotinyl-Val-oxazolone
  self-aminoacylation: 3.87
biotinyl-Ile-oxazolone
  self-aminoacylation: 4.58
biotinyl-Phe-oxazolone
  self-aminoacylation: 42.5
biotinyl-Trp-oxazolone
  self-aminoacylation: 6.1
biotinyl-Met-oxazolone
  self-aminoacylation: 8.03

## AUUCACCUAGGCGAUCGGGUG [Fam2.2 aminoacylation ribozyme variant]
biotinyl-Leu-oxazolone
  self-aminoacylation: 4.89
biotinyl-Val-oxazolone
  self-aminoacylation: 3.52
biotinyl-Ile-oxazolone
  self-aminoacylation: 2.88
biotinyl-Phe-oxazolone
  self-aminoacylation: 20.4
biotinyl-Trp-oxazolone
  self-aminoacylation: 3.78
biotinyl-Met-oxazolone
  self-aminoacylation: 3.5

## AUUCACCUAGGGAAUCGGGUG [Fam2.2 aminoacylation ribozyme variant]
biotinyl-Leu-oxazolone
  self-aminoacylation: 7.44
biotinyl-Val-oxazolone
  self-aminoacylation: 3.23
biotinyl-Ile-oxazolone
  self-aminoacylation: 3.54
biotinyl-Phe-oxazolone
  self-aminoacylation: 36.4
biotinyl-Trp-oxazolone
  self-aminoacylation: 4.86
biotinyl-Met-oxazolone
  self-aminoacylation: 5.05

## AUUCACCUAGGGCAUAGGGUG [Fam2.2 aminoacylation ribozyme variant]
biotinyl-Leu-oxazolone
  self-aminoacylation: 6.33
biotinyl-Val-oxazolone
  self-aminoacylation: 2.76
biotinyl-Ile-oxazolone
  self-aminoacylation: 3.22
biotinyl-Phe-oxazolone
  self-aminoacylation: 38.6
biotinyl-Trp-oxazolone
  self-aminoacylation: 4.16
biotinyl-Met-oxazolone
  self-aminoacylation: 4.74

## AUUCACCUAGGGCAUCGAGUG [Fam2.2 aminoacylation ribozyme variant]
biotinyl-Leu-oxazolone
  self-aminoacylation: 1.65
biotinyl-Val-oxazolone
  self-aminoacylation: 1.2
biotinyl-Ile-oxazolone
  self-aminoacylation: 1.26
biotinyl-Phe-oxazolone
  self-aminoacylation: 1.76
biotinyl-Trp-oxazolone
  self-aminoacylation: 0.91
biotinyl-Met-oxazolone
  self-aminoacylation: 1.45

## AUUCACCUAGGGCAUCGGGAG [Fam2.2 aminoacylation ribozyme variant]
biotinyl-Leu-oxazolone
  self-aminoacylation: 1.1
biotinyl-Val-oxazolone
  self-aminoacylation: 1.04
biotinyl-Ile-oxazolone
  self-aminoacylation: 1.07
biotinyl-Phe-oxazolone
  self-aminoacylation: 0.472
biotinyl-Trp-oxazolone
  self-aminoacylation: 1.08
biotinyl-Met-oxazolone
  self-aminoacylation: 0.855

## AUUCACCUAGGGCAUGGGGUG [Fam2.2 aminoacylation ribozyme variant]
biotinyl-Leu-oxazolone
  self-aminoacylation: 12
biotinyl-Val-oxazolone
  self-aminoacylation: 5.39
biotinyl-Ile-oxazolone
  self-aminoacylation: 5.82
biotinyl-Phe-oxazolone
  self-aminoacylation: 81.4
biotinyl-Trp-oxazolone
  self-aminoacylation: 9.2
biotinyl-Met-oxazolone
  self-aminoacylation: 10.1

## AUUCACCUAGGGCCUCGGGUG [Fam2.2 aminoacylation ribozyme variant]
biotinyl-Leu-oxazolone
  self-aminoacylation: 3.89
biotinyl-Val-oxazolone
  self-aminoacylation: 2.66
biotinyl-Ile-oxazolone
  self-aminoacylation: 2.37
biotinyl-Phe-oxazolone
  self-aminoacylation: 20.3
biotinyl-Trp-oxazolone
  self-aminoacylation: 3.99
biotinyl-Met-oxazolone
  self-aminoacylation: 3.51

## AUUCACCUAGGGCUUCGGGUG [Fam2.2 aminoacylation ribozyme variant]
biotinyl-Leu-oxazolone
  self-aminoacylation: 2.82
biotinyl-Val-oxazolone
  self-aminoacylation: 2.92
biotinyl-Ile-oxazolone
  self-aminoacylation: 2.69
biotinyl-Phe-oxazolone
  self-aminoacylation: 15.1
biotinyl-Trp-oxazolone
  self-aminoacylation: 3.63
biotinyl-Met-oxazolone
  self-aminoacylation: 3.39

## AUUCACCUAGGUAAUCGGGCG [Fam2.2 aminoacylation ribozyme variant]
biotinyl-Leu-oxazolone
  self-aminoacylation: 2.62
biotinyl-Val-oxazolone
  self-aminoacylation: 1.65
biotinyl-Ile-oxazolone
  self-aminoacylation: 1.63
biotinyl-Phe-oxazolone
  self-aminoacylation: 7.69
biotinyl-Trp-oxazolone
  self-aminoacylation: 2.33
biotinyl-Met-oxazolone
  self-aminoacylation: 1.66

## AUUCACCUAGGUAAUCGUGUG [Fam2.2 aminoacylation ribozyme variant]
biotinyl-Leu-oxazolone
  self-aminoacylation: 1.14
biotinyl-Val-oxazolone
  self-aminoacylation: 0.838
biotinyl-Ile-oxazolone
  self-aminoacylation: 0.879
biotinyl-Phe-oxazolone
  self-aminoacylation: 3.38
biotinyl-Trp-oxazolone
  self-aminoacylation: 0.758
biotinyl-Met-oxazolone
  self-aminoacylation: 0.915

## AUUCACCUAGGUAGUCGGGUG [Fam2.2 aminoacylation ribozyme variant]
biotinyl-Leu-oxazolone
  self-aminoacylation: 3.89
biotinyl-Val-oxazolone
  self-aminoacylation: 2.35
biotinyl-Ile-oxazolone
  self-aminoacylation: 2.02
biotinyl-Phe-oxazolone
  self-aminoacylation: 15.8
biotinyl-Trp-oxazolone
  self-aminoacylation: 3.31
biotinyl-Met-oxazolone
  self-aminoacylation: 3.28

## AUUCACCUAGGUCAACCGGUG [Fam2.2 aminoacylation ribozyme variant]
biotinyl-Leu-oxazolone
  self-aminoacylation: 6.28
biotinyl-Val-oxazolone
  self-aminoacylation: 2.72
biotinyl-Ile-oxazolone
  self-aminoacylation: 2.99
biotinyl-Phe-oxazolone
  self-aminoacylation: 26.6
biotinyl-Trp-oxazolone
  self-aminoacylation: 4.14
biotinyl-Met-oxazolone
  self-aminoacylation: 4.9

## AUUCACCUAGGUCAACGGCUG [Fam2.2 aminoacylation ribozyme variant]
biotinyl-Leu-oxazolone
  self-aminoacylation: 1.17
biotinyl-Val-oxazolone
  self-aminoacylation: 1.09
biotinyl-Ile-oxazolone
  self-aminoacylation: 1.12
biotinyl-Phe-oxazolone
  self-aminoacylation: 0.492
biotinyl-Trp-oxazolone
  self-aminoacylation: 0.872
biotinyl-Met-oxazolone
  self-aminoacylation: 1.07

## AUUCACCUAGGUCAACGGGUG [Fam2.2 aminoacylation ribozyme variant]
biotinyl-Leu-oxazolone
  self-aminoacylation: 5.19
biotinyl-Val-oxazolone
  self-aminoacylation: 2.48
biotinyl-Ile-oxazolone
  self-aminoacylation: 2.5
biotinyl-Phe-oxazolone
  self-aminoacylation: 27.5
biotinyl-Trp-oxazolone
  self-aminoacylation: 3.49
biotinyl-Met-oxazolone
  self-aminoacylation: 4.01

## AUUCACCUAGGUCACCGGCUG [Fam2.2 aminoacylation ribozyme variant]
biotinyl-Leu-oxazolone
  self-aminoacylation: 3.16
biotinyl-Val-oxazolone
  self-aminoacylation: 2.36
biotinyl-Ile-oxazolone
  self-aminoacylation: 2.51
biotinyl-Phe-oxazolone
  self-aminoacylation: 12.9
biotinyl-Trp-oxazolone
  self-aminoacylation: 2.12
biotinyl-Met-oxazolone
  self-aminoacylation: 2.27

## AUUCACCUAGGUCACCGGGAG [Fam2.2 aminoacylation ribozyme variant]
biotinyl-Leu-oxazolone
  self-aminoacylation: 1.77
biotinyl-Val-oxazolone
  self-aminoacylation: 1.43
biotinyl-Ile-oxazolone
  self-aminoacylation: 1.49
biotinyl-Phe-oxazolone
  self-aminoacylation: 5.9
biotinyl-Trp-oxazolone
  self-aminoacylation: 1.81
biotinyl-Met-oxazolone
  self-aminoacylation: 2.05
